How the values were obtained:
RPA = RPA (Saccharomyces cerevisiae, UniProt P22336;P26754;P26755 1-621;1-273;1-122); test: EMSA
Mcm10 = biological target: T1, Mcm10 (Saccharomyces cerevisiae, UniProt P32354 1-571); test: fluorescence anisotropy
T1 sequence: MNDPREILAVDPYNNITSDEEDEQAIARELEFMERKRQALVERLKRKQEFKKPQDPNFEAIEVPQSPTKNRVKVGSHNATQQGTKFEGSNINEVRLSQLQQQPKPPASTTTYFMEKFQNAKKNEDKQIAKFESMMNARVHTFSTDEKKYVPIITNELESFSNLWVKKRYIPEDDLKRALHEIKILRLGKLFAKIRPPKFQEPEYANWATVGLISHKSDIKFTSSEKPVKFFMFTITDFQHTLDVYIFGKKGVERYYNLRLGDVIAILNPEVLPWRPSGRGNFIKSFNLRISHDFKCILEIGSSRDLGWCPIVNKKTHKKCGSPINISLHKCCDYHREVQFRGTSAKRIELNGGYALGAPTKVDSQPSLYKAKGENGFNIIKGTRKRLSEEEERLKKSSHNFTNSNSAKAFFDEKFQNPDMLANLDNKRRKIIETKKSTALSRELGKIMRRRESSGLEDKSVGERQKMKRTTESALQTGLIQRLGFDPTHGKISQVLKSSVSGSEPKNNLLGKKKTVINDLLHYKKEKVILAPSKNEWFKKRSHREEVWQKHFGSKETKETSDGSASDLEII

RPA, sequence (P22336 whole entry, chain 1 of 3): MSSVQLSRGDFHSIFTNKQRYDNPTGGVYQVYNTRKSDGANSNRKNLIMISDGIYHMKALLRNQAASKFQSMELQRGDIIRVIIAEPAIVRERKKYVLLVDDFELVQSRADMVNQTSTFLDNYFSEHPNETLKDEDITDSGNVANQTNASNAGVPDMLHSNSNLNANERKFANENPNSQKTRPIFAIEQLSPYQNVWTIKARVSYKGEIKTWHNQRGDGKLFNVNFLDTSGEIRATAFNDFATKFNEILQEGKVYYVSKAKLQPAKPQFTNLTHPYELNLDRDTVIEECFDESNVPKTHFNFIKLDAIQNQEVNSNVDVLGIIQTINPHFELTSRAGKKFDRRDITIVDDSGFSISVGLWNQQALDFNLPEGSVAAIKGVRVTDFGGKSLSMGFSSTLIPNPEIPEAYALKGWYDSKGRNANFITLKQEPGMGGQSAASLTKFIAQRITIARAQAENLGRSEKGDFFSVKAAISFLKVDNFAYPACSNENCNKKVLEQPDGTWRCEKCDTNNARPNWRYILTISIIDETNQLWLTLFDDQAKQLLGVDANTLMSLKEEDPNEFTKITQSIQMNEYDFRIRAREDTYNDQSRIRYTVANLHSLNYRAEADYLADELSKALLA
RPA, sequence (P26754 whole entry, chain 2 of 3): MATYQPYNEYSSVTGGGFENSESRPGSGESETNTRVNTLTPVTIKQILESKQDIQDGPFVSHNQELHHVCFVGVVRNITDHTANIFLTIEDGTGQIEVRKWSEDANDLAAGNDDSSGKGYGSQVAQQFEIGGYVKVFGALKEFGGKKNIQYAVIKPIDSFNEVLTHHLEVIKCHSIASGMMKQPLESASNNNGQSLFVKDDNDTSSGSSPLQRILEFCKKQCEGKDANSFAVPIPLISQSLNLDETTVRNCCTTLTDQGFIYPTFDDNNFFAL
RPA, sequence (P26755 whole entry, chain 3 of 3): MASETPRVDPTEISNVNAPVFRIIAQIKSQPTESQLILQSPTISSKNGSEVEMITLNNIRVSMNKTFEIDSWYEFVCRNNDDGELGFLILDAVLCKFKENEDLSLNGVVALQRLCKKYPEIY

B1: 5' flap lagging strand oligo (ssDNA)
DNA: TTTTTTTTTTTTTTTTTTTTTTTTTTTTTTTTTTTTTTTTTTTTTTTTTGACGCTGCCGAATTCTGGCTTGCTAGGACATTACAGGATCGTTCGGTCTC
modifications: last 5 linkages at 3' end thiodiester (phosphorothioate)
B1: binds (RPA).

B2: 3' FITC 60mer ssDNA (ssDNA)
DNA: TTTTTTTTTTTTTTTTTTTTTTTTTTTTTTGGTGAGGGTTGGGAAGTGGAAGGATGGGCT
Work on B2 yielded a Kd (Mcm10) of 50 nM.
